Experimental data as given in US10738094B2, “Peptides and combination of peptides for use in immunotherapy against ovarian cancer and other cancers” (immatics biotechnologies GmbH, priority 2015, dated 2020).

Target: HLA-A*02:01 (Homo sapiens, UniProt P04439, D140Y/D185E/D98H/E176V/E277Q/G131W/G231S/I119V/I121R/I166T/I218V/L300P/L318F/N151K/N90K/P208A/P217A/Q86G/Q94H/R138H/R169H/T345S)
Test: MHC binding assay (UV-ligand exchange, beta2m ELISA)
Conditions: binding to HLA-A*02:01 ranged by peptide exchange yield (UV-ligand exchange, β2m ELISA)
Description: Candidate peptides for T cell based therapies according to the present invention were further tested for their MHC binding capacity (affinity). The individual peptide-MHC complexes were produced by UV-ligand exchange, where a UV-sensitive peptide is cleaved upon UV-irradiation, and exchanged with the peptide of interest as analyzed. Only peptide candidates that can effectively bind and stabilize the peptide-receptive MHC molecules prevent dissociation of the MHC complexes. To determine the yield of the exchange reaction, an ELISA was performed based on the detection of the light chain (β2m) of stabilized MHC complexes. The assay was performed as generally described in Rodenko et al. (Rodenko et al., 2006).
96 well MAXISorp plates (NUNC) were coated over night with 2 ug/ml streptavidin in PBS at room temperature, washed 4× and blocked for 1 h at 37° C. in 2% BSA containing blocking buffer. […] Peptide-MHC monomers of the UV-exchange reaction were diluted 100 fold in blocking buffer. Samples were incubated for 1 h at 37° C., washed four times, incubated with 2 ug/ml HRP conjugated anti-β2m for 1 h at 37° C., washed again and detected with TMB solution that is stopped with […]. Absorption was measured at 450 nm. Candidate peptides that show a high exchange yield (preferably higher than 50%, most preferred higher than 75%) are generally preferred for a generation and production of antibodies or fragments thereof, and/or T cell receptors or fragments thereof, as they show sufficient avidity to the MHC molecules and prevent dissociation of the MHC complexes.

| Peptide exchange | Substance |
| --- | --- |
| “++” (≥20% = ++) | 428 (KLGHTDILVGV; listed as Homo sapiens) [compound 428] |
| “+++” (≥50 = +++) | 378 (ALGYFVPYV; listed as Homo sapiens) [compound 378] |
| “+++” (≥50 = +++) | 605 (KLYEAVPQL; listed as Homo sapiens) [compound 605] |
| “++” (≥20% = ++) | 522 (TLWYRSPEV; listed as Homo sapiens) [compound 522] |
| “+++” (≥50 = +++) | 496 (FLVEKQPPQV; listed as Homo sapiens) [compound 496] |
| “+++” (≥50 = +++) | 386 (ILFRYPLTI; listed as Homo sapiens) [compound 386] |
| “++++” (≥75% = ++++) | 337 (HLLSELEAAPYL; listed as Homo sapiens) [compound 337] |
| “++” (≥20% = ++) | 375 (SLTETIEGV; listed as Homo sapiens) [compound 375] |
| “+++” (≥50 = +++) | 362 (TLYGLSVLL; listed as Homo sapiens) [compound 362] |
| “+++” (≥50 = +++) | 473 (AMATESILHFA; listed as Homo sapiens) [compound 473] |
| “+++” (≥50 = +++) | 472 (KLLEVSDDPQV; listed as Homo sapiens) [compound 472] |
| “++” (≥20% = ++) | 374 (FLLQQHLISA; listed as Homo sapiens) [compound 374] |
| “+++” (≥50 = +++) | 614 (LLLPDQPPYHL; listed as Homo sapiens) [compound 614] |
| “++” (≥20% = ++) | 373 (SLLEDKGLAEV; listed as Homo sapiens) [compound 373] |
| “+++” (≥50 = +++) | 584 (ALAEVAAMENV; listed as Homo sapiens) [compound 584] |

The remaining lines, values behind:

| Substance | Peptide exchange |
| --- | --- |
| 123 (NLWDLTDASVV; listed as Homo sapiens) [compound 123] | “+++” (≥50 = +++) |
| 128 (YLFDDPLSAV; listed as Homo sapiens) [compound 128] | “++” (≥20% = ++) |
| 162 (YQQAQVPSV; listed as Homo sapiens) [compound 162] | “+++” (≥50 = +++) |
| 109 (IILSILEQA; listed as Homo sapiens) [compound 109] | “++++” (≥75% = ++++) |
| 330 (QLALKVEGV; listed as Homo sapiens) [compound 330] | “+++” (≥50 = +++) |
| 233 (VLSETLYEL; listed as Homo sapiens) [compound 233] | “++” (≥20% = ++) |
| 74 (ALLDPEVLSIFV; listed as Homo sapiens) [compound 74] | “+++” (≥50 = +++) |
| 278 (QLLDVVLTI; listed as Homo sapiens) [compound 278] | “++” (≥20% = ++) |
| 77 (ILVEADGAWVV; listed as Homo sapiens) [compound 77] | “++++” (≥75% = ++++) |
| 182 (MLLEAPGIFL; listed as Homo sapiens) [compound 182] | “+++” (≥50 = +++) |
| 227 (ALMNTLLYL; listed as Homo sapiens) [compound 227] | “++” (≥20% = ++) |
| 175 (YLFENISQL; listed as Homo sapiens) [compound 175] | “+++” (≥50 = +++) |
| 188 (GLFPVTPEAV; listed as Homo sapiens) [compound 188] | “+++” (≥50 = +++) |
| 4 (GIMEHITKI; listed as Homo sapiens) [compound 4] | “++++” (≥75% = ++++) |
| 327 (GLAPFTEGISFV; listed as Homo sapiens) [compound 327] | “+++” (≥50 = +++) |
| 197 (ALGPEGGRV; listed as Homo sapiens) [compound 197] | “++” (≥20% = ++) |
| 52 (FLLAHGLGFLL; listed as Homo sapiens) [compound 52] | “++++” (≥75% = ++++) |
